Data on 6 molecules can be found in patent US20130295090A1 (US Dept. of Health and Human Services, published 2013).

Like-named read-outs stand apart in the source and are kept apart here.

What is called EC50 is the concentration needed to bring the measured effect to its halfway point. The low end stands for higher potency in that assay, the high end for lower potency in that assay. What is called EC50 (read off the curve) is the midpoint of the concentration-response curve. A lower EC50 (read off the curve) goes with higher potency in that assay. Broadly, the Kd is the equilibrium constant for the complex coming apart. One may read the koff as the first-order rate constant of dissociation. As a reminder, the kon is the rate constant with which the complex forms.

For assay [1], the target named is T1, JEV strain SA14-14-2 envelope (E) protein on virions (Japanese encephalitis virus strain …, UniProt P0DOH7 295-794).
Assay [2] deals with T1, JEV strain SA14-14-2 envelope (E) …. Briefly: cell-based or functional assay.
Assay [3] shares this target. Briefly: ELISA on JEV virions, half maximum binding (FIG. 4A). A general note: An ELISA detects its analyte on a solid surface through an enzyme-linked reagent.
Assay [4] has the same target. Put plainly: ELISA, virion-coated plate; initial Fab ~100 µg/ml.
Assay [5] shares this target. Put plainly: ELISA on JEV SA14-14-2 virions captured with HMAF.
Assay [6] addresses T2, recombinant JEV N-terminal 80% E protein (Japanese encephalitis virus strain …, UniProt P0DOH7 295-692). Put plainly: SPR (Biacore 3000), recombinant E immobilized, Fab in solution. A general note: SPR reads the build-up and loss of mass on a sensor chip optically.
For assay [7], the target named is T1, JEV strain SA14-14-2 envelope (E) …. Briefly: ELISA on JEV virions captured with HMAF, half-maximal binding, Fab.
Assay [8] shares this target. Briefly: cell-based or functional assay. The source holds these as a separate data set.
Assay [9] shares this target. Put plainly: cell-based or functional assay. This is another data set of the same source.
The target of assay [10] is E protein of wild type JEV strain JE 1991 (genotype I) (Japanese encephalitis virus strain JE …). Briefly: cell-based or functional assay.
For assay [11], the target named is E protein of wild type JEV strain JE B1034/8 (genotype II) (Japanese encephalitis virus strain JE …). Briefly: cell-based or functional assay.
The target of assay [12] is E protein of wild type JEV strain Beijing (genotype III) (Japanese encephalitis virus strain …). Put plainly: cell-based or functional assay.
The target in assay [13] is E protein of wild type JEV strain JKT 9092 (genotype IV) (Japanese encephalitis virus strain JKT …). Put plainly: cell-based or functional assay.
For assay [14], the target named is T1, JEV strain SA14-14-2 envelope (E) …. Briefly: cell-based or functional assay. The source holds these as a separate data set.
The target is the same in assay [15]. Briefly: ELISA on JEV virions captured with HMAF, half-maximal binding, MAb.
Assay [16] has the same target. This is another data set of the same source.
The target is the same in assay [17]. The source holds these as a separate data set.
The target in assay [18] is T2, recombinant JEV N-terminal 80% E protein. Briefly: SPR, recombinant E immobilized.

B1: Fab E3 (Fab, V domains shown)
VH: EVQLLESGPGLVRPSQTLSLTCAVSGASISGPLSYWTWIRQSPGKKMEHIGSMFYSGNTYYNPSLKGRITMSVDTSRNQFSLNLNSVTVADTAVYFCARRRETELFGLPIDYWGQGILVTVSS
VL: ELTQSPATLSVSPGERATLSCRASERISSSYLSWYQQKPGQAPRLLMYGTSTRATGIPARFSGSGSGTDFTLTISSLQPEDFAVYFCQQDYNLPWTFGQGTKLEIKR
Take B1: the “IC50 (read off the curve)” value in [1] is about 7 nM. Further, the “PRNT50 titer” value in assay [2] is 84.9 nM. This molecule also showed an EC50 in assay [3] of 0.98 nM. Further, in assay [4], the “ELISA titer (1/log10 dilution)” value is 4.2 log10 reciprocal dilution. For the same molecule, the “EC50 (read off the curve)” value in assay [5] is about 1 nM. For the same molecule, in assay [6], the dissociation constant Kd was found to be 0.35 nM, the off-rate constant (koff) was 3.6e-05 s⁻¹ and the kon was 100000 M⁻¹ s⁻¹. The molecule also registered an equilibrium dissociation constant (Kd) in assay [7] of 0.98 nM.

B2: humanized MAb E3 (antibody, V domains shown)
VH: B1 VH
VL: B1 VL
On to B2, for which the “occupancy of accessible antibody sites on the virion for neutralization” value (from here on “occupancy of accessible antibody sites”) in assay [8] turned out to be 66%. The “PRNT50 titer” value in assay [9] is 0.93 nM; in assay [10], 0.21 nM; in assay [11] it was 0.14 nM; in assay [12], 0.71 nM; in [13], 0.36 nM. In addition, the “PRNT50” value in [14] amounted to 0.09 µg/mL. Besides, the affinity in assay [15], expressed as Kd, was 0.31 nM.

B3: Fab A3 (Fab, V domains shown)
VH: EVQLLESGAEVKKPGSSVRISCKVSGTPYSSYVMNWVRQAPGQGLEWMGVFVPSLDRALYAQNFQGRLSITADTTTTYMELTSLKFEDTAVYYCATDFSVGWLRPLDRWGQGTLVTVSS
VL: ELQMTQSPSSLSASVGDRVTITCRASQGISNYLAWYQQKPGKAPKLLIYYASRLESGVPSRFSGSGSGTDYTLTISSLQPEDFATYYCQQYNSNPFTFGPGTKVDIKR
In the case of B3, the “IC50 (read off the curve)” value in [16] is about 6 nM. Moreover, the “PRNT50 titer” value in assay [2] stood at 2.55 nM. This molecule registered a 50% effective concentration (EC50) in [3] of 0.45 nM. Also, in assay [4], the “ELISA titer (1/log10 dilution)” value turned out to be 4.7 log10 reciprocal dilution. In assay [5], the “EC50 (read off the curve)” value was about 0.5 nM. For the same molecule, in assay [6], the Kd came out at 0.72 nM, the koff came to 2.8e-05 s⁻¹ and the kon came out at 40000 M⁻¹ s⁻¹. Moreover, binding in assay [7] was characterised by a dissociation constant (Kd) of 0.45 nM.

B4: humanized MAb A3 (antibody, V domains shown)
VH: B3 VH
VL: B3 VL
With B4, the “occupancy of accessible antibody sites” value in [8] amounted to 45%. Besides, the “PRNT50 titer” value came to 0.2 nM in assay [9]; 0.04 nM in [10]; 0.04 nM in assay [11]; 0.2 nM in [12]; 0.07 nM in [13]. In assay [14], the “PRNT50” value was 0.04 µg/mL.

B5: humanized MAb B2 (antibody, V domains shown)
VH: VQLLEQSGSEVKKPGASVKVSCKASGYPFTDYAMSWVRQAPGQGLEYMGWIFTNSGNPTYAPGFAGRFVFSLDISVNTAYLHIDSLKPEDTAVYYCARGIVTPAASGDYFDSWGQGTLVTVSS
VL: ELVLTQSPSSLSASIGDRVTITCRASQHISSWLAWYQQKPGKAPKPLIYAASSLKSGVPSRFSGSGSGTDFTLTISGLQPEDFATYYCQQYENSPVTFGGGTKVEIKR
Regarding B5, in assay [8], the “occupancy of accessible antibody sites” value was about 28%. For the same molecule, the “PRNT50 titer” value in assay [9] was 0.03 nM; in assay [10], 0.02 nM; in [11], 0.02 nM; in assay [12], 0.02 nM; in assay [13] it was 2 nM. For the same molecule, the “PRNT50” value in assay [14] was found to be 0.005 µg/mL.

B6: Fab B2 (Fab, V domains shown)
VH: B5 VH
VL: B5 VL
In the case of B6, the “IC50 (read off the curve)” value in assay [17] is about 5 nM. Further, the “PRNT50 titer” value in [2] amounted to 0.25 nM. Moreover, in assay [18], the “fold faster off-rate than Fab A3 or E3” value was at least 120 fold and the “fold weaker Kd than Fab A3 or E3” value is at least 150 fold. Also, in assay [3], a half-maximal response (EC50) required 0.28 nM. Further, the “ELISA titer (1/log10 dilution)” value in assay [4] worked out at 4.2 log10 reciprocal dilution. Also, the “EC50 (read off the curve)” value in assay [5] was about 0.2 nM. Further, in assay [6], the Kd is 110 nM, the koff worked out at 0.0046 s⁻¹ and the kon was determined as 42000 M⁻¹ s⁻¹. Further, the affinity in [7], expressed as Kd, was 0.28 nM.
